US20190134606A1

Target: Fab fragment derived from the humanized anti-IgE monoclonal IgG omalizumab ("Xolair", Novartis), made by papain digestion
Assay: column breakthrough, 1 mg/mL Fab, HiTrap Protein L column, ligand density 10 mg/mL-gel from the manual

- 55% DBC: 21.7 mg/mL-gel
Substance: Protein L ligand of the commercially available Protein L carrier ("HiTrap Protein L" manufactured by GE Healthcare)
